The values below come from publication PMC8691596.

Where “and” joins values, the source holds several entries; their conditions need not be identical. Equal entries are not always repeated. Where two headings read alike, the source gives them in different places.

In assay [1] the target is mouse FcRn, heterodimer with β2 microglobulin, extracellular domain with C-terminal hexa-His (mouse | not stated) (UniProt Q61559). Kind of assay: SPR. In general terms: SPR reads the build-up and loss of mass on a sensor chip optically.
For assay [2], the target named is human FcRn, heterodimer with β2 microglobulin, extracellular domain with C-terminal hexa-His (UniProt P55899). The experiment in a line: SPR.
The target in assay [3] is cynomolgus monkey FcRn, heterodimer with β2 microglobulin, extracellular domain with C-terminal hexa-His (cynomolgus monkey | not stated) (UniProt Q8SPV9). Kind of assay: SPR.
Assay [4] has as its target human FcγRIIa H131 extracellular domain, C-terminal hexa-His (independently-made panel) (human) (UniProt P12318).
The target in assay [5] is human FcγRI (CD64), histidine-tagged recombinant (human) (UniProt P12314). Kind of assay: SPR; His-tagged Fc receptor captured by anti-histidine antibody immobilised on CM5; antibody injected at 100 μg/mL for 1 min; response about 5 s before end of injection, blank subtracted; 25°C, HBS-EP+; Biacore T200.
The target in assay [6] is human FcγRIIb (CD32b), histidine-tagged recombinant (human) (UniProt P31994).
The target in assay [7] is human FcγRI (CD64), histidine-tagged recombinant (human) (UniProt P12314).
The target in assay [8] is human FcγRIIIa (CD16a) V158 allele, histidine-tagged recombinant (human) (UniProt P08637).
Assay [9] addresses human FcγRIIb (CD32b), histidine-tagged recombinant (human) (UniProt P31994). The experiment in a line: SPR; His-tagged Fc receptor captured by anti-histidine antibody immobilised on CM5; antibody injected at 100 μg/mL for 1 min; response about 5 s before end of injection, blank subtracted; 25°C, HBS-EP+; Biacore T200.
For assay [10], the target named is human FcγRI (CD64), histidine-tagged recombinant (human) (UniProt P12314). The assay is described as above. This is another data set of the same source.
Assay [11] concerns the target human FcγRIIIb (CD16b) NA2 allele, histidine-tagged recombinant (human) (UniProt O75015). The description is as above.
For assay [12], the target named is mouse FcγRI (CD64), histidine-tagged recombinant (mouse) (UniProt P26151). The description is as above.
For assay [13], the target named is human FcγRIIIa (CD16a) V158 allele, histidine-tagged recombinant (human) (UniProt P08637). The description is as above.
Assay [14] concerns the target human FcγRIIIa (CD16a) F158 allele, histidine-tagged recombinant (human) (UniProt P08637). Described as above.
In assay [15] the target is rat FcγRI (CD64), histidine-tagged recombinant (rat). The description is as above.
In assay [16] the target is human FcγRIIa (CD32a) R131 allele, histidine-tagged recombinant (human) (UniProt P12318). Described as above.
human FcγRIIa (CD32a) R131 allele, histidine-tagged recombinant (human), sequence (P12318 34-217): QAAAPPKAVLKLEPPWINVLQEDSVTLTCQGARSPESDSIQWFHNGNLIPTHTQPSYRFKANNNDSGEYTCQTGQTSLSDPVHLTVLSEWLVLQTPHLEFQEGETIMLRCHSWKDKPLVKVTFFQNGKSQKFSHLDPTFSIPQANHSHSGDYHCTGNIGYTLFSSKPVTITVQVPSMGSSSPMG

human FcγRIIIa (CD16a) V158 allele, histidine-tagged recombinant (human), sequence (P08637 17-208): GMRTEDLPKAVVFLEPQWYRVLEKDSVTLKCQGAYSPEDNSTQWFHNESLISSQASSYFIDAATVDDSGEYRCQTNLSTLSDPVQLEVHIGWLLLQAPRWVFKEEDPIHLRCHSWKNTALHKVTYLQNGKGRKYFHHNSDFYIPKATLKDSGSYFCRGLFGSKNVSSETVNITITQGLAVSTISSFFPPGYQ
human FcγRI (CD64), histidine-tagged recombinant (human), sequence (P12314 16-292): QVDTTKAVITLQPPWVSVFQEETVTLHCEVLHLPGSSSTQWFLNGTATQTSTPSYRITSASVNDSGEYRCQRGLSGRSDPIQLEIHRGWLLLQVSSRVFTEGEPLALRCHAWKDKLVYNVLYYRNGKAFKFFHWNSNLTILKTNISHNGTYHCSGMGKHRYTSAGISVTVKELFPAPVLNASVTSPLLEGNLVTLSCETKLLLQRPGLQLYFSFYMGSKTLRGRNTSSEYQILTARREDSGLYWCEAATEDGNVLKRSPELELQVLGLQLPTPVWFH
human FcγRIIb (CD32b), histidine-tagged recombinant (human), sequence (P31994 43-217): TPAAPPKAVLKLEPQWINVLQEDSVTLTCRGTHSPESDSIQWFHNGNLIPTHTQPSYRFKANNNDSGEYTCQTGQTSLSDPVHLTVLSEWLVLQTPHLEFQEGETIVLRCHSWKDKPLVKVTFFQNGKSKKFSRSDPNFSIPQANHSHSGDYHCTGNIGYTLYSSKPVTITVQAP
human FcγRIIIb (CD16b) NA2 allele, histidine-tagged recombinant (human), sequence (O75015 17-200): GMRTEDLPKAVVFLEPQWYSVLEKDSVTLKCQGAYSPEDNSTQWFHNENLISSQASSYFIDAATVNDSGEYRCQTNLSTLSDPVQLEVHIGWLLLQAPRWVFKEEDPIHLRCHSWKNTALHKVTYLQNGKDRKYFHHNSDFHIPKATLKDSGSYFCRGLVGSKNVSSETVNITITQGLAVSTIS
human FcγRIIIa (CD16a) F158 allele, histidine-tagged recombinant (human), sequence (P08637 17-208): as the sequence (P08637 17-208) above
mouse FcγRI (CD64), histidine-tagged recombinant (mouse), sequence (P26151 25-297): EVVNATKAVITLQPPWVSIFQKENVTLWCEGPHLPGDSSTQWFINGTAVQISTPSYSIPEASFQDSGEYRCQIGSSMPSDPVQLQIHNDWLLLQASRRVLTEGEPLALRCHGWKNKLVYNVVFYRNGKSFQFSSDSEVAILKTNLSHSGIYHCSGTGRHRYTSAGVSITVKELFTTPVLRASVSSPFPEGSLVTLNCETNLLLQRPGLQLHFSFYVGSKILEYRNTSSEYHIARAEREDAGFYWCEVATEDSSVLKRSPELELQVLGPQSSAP
mouse FcRn, heterodimer with β2 microglobulin, extracellular domain with C-terminal hexa-His (mouse | not stated), sequence (Q61559 22-297, chain 1 of 2): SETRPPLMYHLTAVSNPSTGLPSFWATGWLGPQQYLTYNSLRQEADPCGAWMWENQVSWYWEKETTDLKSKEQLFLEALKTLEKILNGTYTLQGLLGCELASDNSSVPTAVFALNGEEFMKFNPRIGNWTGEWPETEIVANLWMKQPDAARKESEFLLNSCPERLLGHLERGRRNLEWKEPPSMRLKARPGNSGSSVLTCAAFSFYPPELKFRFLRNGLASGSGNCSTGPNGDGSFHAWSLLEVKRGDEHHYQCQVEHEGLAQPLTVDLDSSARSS
mouse FcRn, heterodimer with β2 microglobulin, extracellular domain with C-terminal hexa-His (mouse | not stated), sequence (P01887 21-119, chain 2 of 2, further chain): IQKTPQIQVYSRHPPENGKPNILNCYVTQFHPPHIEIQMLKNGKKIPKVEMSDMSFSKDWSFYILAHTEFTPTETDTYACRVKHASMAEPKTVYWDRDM
human FcRn, heterodimer with β2 microglobulin, extracellular domain with C-terminal hexa-His, sequence (P55899 24-297, chain 1 of 2): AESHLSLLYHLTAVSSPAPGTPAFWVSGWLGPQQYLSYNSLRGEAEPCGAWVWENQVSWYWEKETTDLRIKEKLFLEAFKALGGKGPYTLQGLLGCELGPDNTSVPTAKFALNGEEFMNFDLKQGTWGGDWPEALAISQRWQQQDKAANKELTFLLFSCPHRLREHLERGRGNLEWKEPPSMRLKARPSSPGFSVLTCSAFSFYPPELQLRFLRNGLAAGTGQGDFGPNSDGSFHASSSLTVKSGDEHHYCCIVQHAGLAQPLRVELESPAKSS
human FcRn, heterodimer with β2 microglobulin, extracellular domain with C-terminal hexa-His, sequence (partner, as listed by the source, chain 2 of 2): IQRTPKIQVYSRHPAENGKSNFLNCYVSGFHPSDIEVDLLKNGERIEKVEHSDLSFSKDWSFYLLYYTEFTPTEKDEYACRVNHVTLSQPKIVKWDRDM
cynomolgus monkey FcRn, heterodimer with β2 microglobulin, extracellular domain with C-terminal hexa-His (cynomolgus monkey | not stated), sequence (Q8SPV9 24-297, chain 1 of 2): as the sequence (P55899 24-297, chain 1 of 2) above, with N39D, E44Q, G99S, S189G, S190N, L217M, S269T counted along it
cynomolgus monkey FcRn, heterodimer with β2 microglobulin, extracellular domain with C-terminal hexa-His (cynomolgus monkey | not stated), sequence (Q6T672 21-119, chain 2 of 2, further chain): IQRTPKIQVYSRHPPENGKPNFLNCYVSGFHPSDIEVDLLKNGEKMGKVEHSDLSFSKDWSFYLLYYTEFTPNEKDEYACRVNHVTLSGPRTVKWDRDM
human FcγRIIa H131 extracellular domain, C-terminal hexa-His (independently-made panel) (human), sequence (P12318 34-217): as the sequence (P12318 34-217) above

One may read the Kd as the free concentration of one partner at which half of the binding sites on the other are occupied at equilibrium, for simple one-to-one binding. With “Remicade (rituximab, wild-type human IgG1) (from UniProt P01857)”, the Kd in assay [1] stood at 71 nM; in assay [2], 562 nM; in assay [3], 347 nM.

Consider “anti-CD20 (rituximab variable regions) human IgG1 wild type reference (antibody)”, for which the Mean normalised luminescence (% of wild-type reference); Promega Fc effector bioassay, Jurkat NFAT-luciferase cells with the receptor + Raji cells, antibody 10 μg/mL in assay [4] amounted to 100%.

In the case of “anti-CD20 IgG1 L234S/L235V/G236R (antibody)”, the mean response in [5] was 2.4 RU; in assay [9] it was -0.8 RU; in assay [10], -1.6 RU; in [11] it was 0.6 RU; in [12] it was 0.1 RU; in assay [13], 0.8 RU. In addition, the mean response was 0 RU in assay [14], -0.4 RU in assay [15] and 0.3 RU in [16]. For the same substance, in assay [5], the response was 2.1 RU and 4.3 RU. Also, the figures for the Mean normalised luminescence (% of wild-type reference); Promega Fc effector bioassay, Jurkat NFAT-luciferase cells with the receptor + Raji cells, antibody 10 μg/mL in [6], in assay [7] and in assay [8] were 1.7%, 1.9% and 2.1%, respectively.

For “anti-CD20 IgG1 L234T/L235Q/G236R (antibody)”, the mean response in assay [5] is 3 RU; in [9], -1.1 RU; in [10], -1.9 RU; in assay [11] it was -1.5 RU; in assay [12] it was -4.1 RU; in assay [13], -4 RU. The mean response in assay [14] was -0.5 RU; in assay [15], -2.5 RU; in assay [16], 0.2 RU. Besides, in assay [5], the response stood at 4.5 RU. The Mean normalised luminescence (% of wild-type reference); Promega Fc effector bioassay, Jurkat NFAT-luciferase cells with the receptor + Raji cells, antibody 10 μg/mL in [6] worked out at 1.7%; in [7], 1.9%; in [8], 2.1%.
